B1: A4-076 (VHH)
VHH: VQLQESGGGLVHSGGSLRLSCAASGSMFSLNTMGWYRQAPGKQRELVATITRGGGTSYADSVKGRFTISRDNAKNTVYLQMNSLRPEDTAVYYCHVDELRQSSWTTSNLWGQGTQVTVSS
B2: A4-103 (VHH)
VHH: VQLQESGGGLVQPGGSLRLSCAASGSIFSLNAMGWYRQAPGKQRELVATITRGGSTNYADSVKGRFTISRDNAKNTVYLQMNSLRPEDTAVYYCHVDEVRESIWTTSNLWGQGTQVTVSS
B3: A4-102 (VHH)
VHH: VQLQESGGGLVQPGGSLRLSCAASGSHFTINSVGWYRQAPGKQRELVAPVTRGGTTNYADFVKGRFTISRDNAKNTVYLQMNSLRPEDTAVYYCHVDELRDSSWTTSNLWGQGTQVTVSS
B4: A4-089 (VHH)
VHH: VQLQESGGGLVQPGGSLRLSCAASGSNFSINTMGWYRQAPGKQRELVATFTRAGNTNYADSVKGRFTISRDNGKNTVYLQMNSLRPEDTAVYYCHVDEVRDSSWTTSNLWGQGTQVTVSS
B5: A4-104 (VHH)
VHH: VQLQESGGGLVQPGGSLRLSCAASGSIFSLNSMGWYRQAPGKQRELVATITSGGSTNYAGSVKGRFTISRDNAKNTVYLQMNNLQPEDTAVYYCHVDEVRESSWTTSNLWGQGTQVTVSS
B6: A4-083 (VHH)
VHH: VQLQESGGGLVQTGGSLKLSCAASGSRFSLNTMGWYRQAPRKQREFVAAVTRGGNTNYGDFVKGRFTISRDNAKNTVYLQMNSLRPEDTAVYYCHVDELRESSWTTSNLWGQGTQVTVSS
B7: A4-099 (VHH)
VHH: VQLQESGGGLVQTGGSLRLSCAASGSSFSINTMGWYRQAPGKWRELVAAVTRGGDTNYAESVKGRFTISRDNGKNTVYLQMNSLRPEDTAVYYCHIDEIRESSWTTSNLWGQGTQVTVSS
B8: A4-077 (VHH)
VHH: VQLQESGGGLVQPGGSLRLSCAASGSMFSINIMGWYRQAPGKQREFVATITRGGSTNYADFVKGRFTISRDNAKNTVYLQMNSLRPEDTAVYYCHVDELRDSSWTTSNLWGQGTQVTVSS
B9: A4-092 (VHH)
VHH: VQLQESGGGLVQTGGSLRLSCLASGSIFSINTMGWYRQRAGKQRELVATVTRAGSTNYADSVKGRFTISRDNAKNTVYLQMNSLRPEDTAVYYCHVDEIRESSWTTSNLWGQGTQVTVSS
B10: A4-088 (VHH)
VHH: VQLQESGGGLVQTGGSLRLSCAASGSRFSLNTMGWYRQAPGKQRELVAAVTRGGNTNYGDFVKGRFTISRDNAKNTVYLQMNSLRPEDTAVYYCHVDELRESSWTTSNLWGQGTQVTVSS
B11: A4-090 (VHH)
VHH: VQLQESGGGLVQPGGSLRLSCVASGSRFIINTMGWYRQAPGKQRELVATFTRGGNTNYAESVKGRFTISRDNGKSTVYLQMNSLRPEDTAVYYCHVDEVRESTWTTSNLWGQGTQVTVSS
B12: A4-101 (VHH)
VHH: VQLQESGGGLVQPGGSLRLSCAASGSRFSINIMGWYRQAPGKQRELVASVTRGGTTNYADSVKGRFTISRDNPKNTIYLQMNSLRPEDTAVYYCHVDEIRESTWTTSNLWGQGTQVTVSS
B13: A4-093 (VHH)
VHH: VQLQESGGGLVQTGGSLRLSCAASGSIFIINTMGWYRQRAGKQRELVATVTRGGSTNYADSVKGRFTISRDNAKNTVYLQMNTLRPEDTAVYYCHVDELRQSSWTTSNLWGQGTQVTVSS

How the values were obtained:
AAV2 = molecular target: T1, AAV2 (adeno-associated virus 2, UniProt P03135 1-735); assay: SPR, AAV amine-coupled to CM5 chip;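 further: nanobodies flowed as analyte at seven concentrations spanning 1–100 nM over immobilized AAV (500–800 RU), kinetic constants derived by fitting the binding curves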
T1 construct: also called adeno-associated virus serotype 2
Protocol: (§1) AAV was amine-coupled to a CM5 sensor chip at a density of 500-800 response units (RU). Nanobodies were injected at seven concentrations (1-100 nM) with a flow rate of 45 μL/min, and chip regeneration was performed using glycine-HCl (pH 1.5). Binding curves at different nanobody concentrations were used to calculate kinetic parameters (Kₐ, Kd, KD) (Table 2 and FIG. 2).

AAV8 [1] = molecular target: T2, AAV8 (adeno-associated virus 8); assay: SPR, AAV amine-coupled to CM5 chip;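 further: nanobodies flowed as analyte at seven concentrations spanning 1–100 nM over immobilized AAV (500–800 RU), kinetic constants derived by fitting the binding curves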
T2 construct: also called adeno-associated virus serotype 8
Protocol: as §1

AAV5 [2] = molecular target: T3, AAV5 (adeno-associated virus 5); assay: SPR, AAV amine-coupled to CM5 chip;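 further: nanobodies flowed as analyte at seven concentrations spanning 1–100 nM over immobilized AAV (500–800 RU), kinetic constants derived by fitting the binding curves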
T3 construct: also called adeno-associated virus serotype 5
Protocol: as §1

AAV9 [3] = molecular target: T4, AAV9 (adeno-associated virus 9); assay: SPR, AAV amine-coupled to CM5 chip;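 further: nanobodies flowed as analyte at seven concentrations spanning 1–100 nM over immobilized AAV (500–800 RU), kinetic constants derived by fitting the binding curves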
T4 construct: also called adeno-associated virus serotype 9
Protocol: as §1

AAV8 [4] = molecular target: T5, AAV8 (adeno-associated virus serotype 8); assay: SPR, AAV on CM5 chip;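 further: surface plasmon resonance with AAV amine-coupled to the chip as ligand, nanobodies injected as analyte over a concentration series, rate constants and affinity fitted from binding curves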
T5 construct: also called adeno-associated virus serotype 8
Protocol: as §1

AAV5 [5] = molecular target: T6, AAV5 (adeno-associated virus serotype 5); assay: SPR, AAV on CM5 chip;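 further: surface plasmon resonance with AAV amine-coupled to the chip as ligand, nanobodies injected as analyte over a concentration series, rate constants and affinity fitted from binding curves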
T6 construct: also called adeno-associated virus serotype 5
Protocol: as §1

AAV9 [6] = molecular target: T7, AAV9 (adeno-associated virus serotype 9); assay: SPR, AAV on CM5 chip;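 further: surface plasmon resonance with AAV amine-coupled to the chip as ligand, nanobodies injected as analyte over a concentration series, rate constants and affinity fitted from binding curves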
T7 construct: also called adeno-associated virus serotype 9
Protocol: as §1

Binder	Kd (AAV2) [nM]	koff (AAV2) [s⁻¹]	kon (AAV2) [M⁻¹ s⁻¹]	Kd (AAV8 [1]) [nM]	koff (AAV8 [1]) [s⁻¹]	kon (AAV8 [1]) [M⁻¹ s⁻¹]	Kd (AAV5 [2]) [nM]	koff (AAV5 [2]) [s⁻¹]	kon (AAV5 [2]) [M⁻¹ s⁻¹]	Kd (AAV9 [3]) [nM]	koff (AAV9 [3]) [s⁻¹]	kon (AAV9 [3]) [M⁻¹ s⁻¹]	Kd (AAV8 [4]) [nM]	koff (AAV8 [4]) [s⁻¹]	kon (AAV8 [4]) [M⁻¹ s⁻¹]	Kd (AAV5 [5]) [nM]	koff (AAV5 [5]) [s⁻¹]	kon (AAV5 [5]) [M⁻¹ s⁻¹]	Kd (AAV9 [6]) [nM]	koff (AAV9 [6]) [s⁻¹]	further results
B1	73.6	0.00056	7610	98.1	0.00092	9380	37	0.00015	4060	8.16	6e-05	7360	–	–	–	–	–	–	–	–	–
B2	–	–	–	–	–	–	–	–	–	–	–	–	35.1	0.00182	51900	26.9	0.00137	51000	81.2	0.00107	kon (AAV9 [6]): 13200 M⁻¹ s⁻¹
B3	–	–	–	–	–	–	–	–	–	–	–	–	7.86	0.0006	76300	40.4	0.007	173000	30.8	0.00465	kon (AAV9 [6]): 151000 M⁻¹ s⁻¹
B4	4.28	0.0008	187000	4.48	0.00054	121000	163	0.00099	6080	2.29	0.00041	179000	–	–	–	–	–	–	–	–	–
B5	–	–	–	–	–	–	–	–	–	–	–	–	10.5	3e-05	2860	44	0.00037	8420	451	0.00093	kon (AAV9 [6]): 2060 M⁻¹ s⁻¹
B6	944	0.00344	3640	42.4	0.00737	174000	31	0.00287	92500	92.3	0.00657	71200	–	–	–	–	–	–	–	–	–
B7	1.06	0.00021	197000	2.57	0.0005	194000	4.19	0.00041	98000	0.203	3e-05	148000	–	–	–	–	–	–	–	–	–
B8	4.63	0.00046	99300	2.92	0.00038	130000	0.987	0.00019	193000	1.87	0.00037	198000	–	–	–	–	–	–	–	–	–
B9	1.09	6e-05	55100	0.106	2e-05	188000	0.194	1e-05	51600	1.06	9e-05	84900	–	–	–	–	–	–	–	–	–
B10	2420	0.00993	4100	538	0.00454	8440	201	0.00146	7260	234	0.00177	7570	–	–	–	–	–	–	–	–	–
B11	6.83	0.00136	199000	14.5	0.00109	75300	121	0.00186	15300	24.9	0.0015	60400	–	–	–	–	–	–	–	–	–
B12	–	–	–	–	–	–	–	–	–	–	–	–	162	0.00129	7970	70.8	0.00034	4800	13.4	9e-05	kon (AAV9 [6]): 6700 M⁻¹ s⁻¹
B13	46	0.00103	22400	11.8	0.00196	166000	8.21	0.00114	139000	15.5	0.0011	70800	–	–	–	–	–	–	–	–	–

Source: US20260193326A1 (published 2026)
